Experimental data published in paper PMC12147176, “Unstructured protein domains stabilize RNA binding and mediate RNA folding by AUF1”.

Tests used:
[1] = molecular target: T1, His6-p37AUF1 W87F (human, UniProt Q14103-4 1-287, W87F); test: Trp fluorescence and iodide quenching; 2 uM each; KSV 3.88 M-1; Anisotropy: 10 mM Tris-HCl pH 8.0, 100 mM KCl (50 mM for Fl-ARE2), 0.5 mM EDTA, 0.1 ug/ul acetylated BSA, 1 ug/ul heparin, 2 mM DTT, 25 C, RNA 0.2-0.4 nM; EMSA: same with 100 mM KCl, 10% glycerol, 1 nM RNA, on ice, UV crosslinked; conditions: protein: recombinant; tags: N-term His6; chain copies: 2
[2] = molecular target: His6-p37AUF1(78-287) (human, UniProt Q14103-4 78-287); test: fluorescence anisotropy; Anisotropy: 10 mM Tris-HCl pH 8.0, 100 mM KCl (50 mM for Fl-ARE2), 0.5 mM EDTA, 0.1 ug/ul acetylated BSA, 1 ug/ul heparin, 2 mM DTT, 25 C, RNA 0.2-0.4 nM; EMSA: same with 100 mM KCl, 10% glycerol, 1 nM RNA, on ice, UV crosslinked; conditions: protein: recombinant; chain copies: 2; label: 3' fluorescein
[3] = molecular target: His6-p37AUF1(69-287) (human, UniProt Q14103-4 69-287); test: as above; conditions: protein: recombinant; label: 3' fluorescein
[4] = molecular target: T2, His6-p37AUF1 wt (human, UniProt Q14103-4 1-287); test: as above; conditions: protein: recombinant, chain copies: 2; for Kd: label: 3' fluorescein
[5] = molecular target: T3, His6-p37AUF1(78-239) (human, UniProt Q14103-4 78-239); test: as above; conditions: protein: recombinant; for Kd: label: 3' fluorescein
[6] = molecular target: T4, His6-p37AUF1(1-239) (human, UniProt Q14103-4 1-239); test: as above; conditions: protein: recombinant; chain copies: 2; label: 3' fluorescein
[7] = molecular target: His6-p37AUF1(69-239) (human, UniProt Q14103-4 69-239); test: as above; conditions: protein: recombinant; label: 3' fluorescein
[8] = molecular target: T2, His6-p37AUF1 wt; test: EMSA (UV-crosslinked); Anisotropy: 10 mM Tris-HCl pH 8.0, 100 mM KCl (50 mM for Fl-ARE2), 0.5 mM EDTA, 0.1 ug/ul acetylated BSA, 1 ug/ul heparin, 2 mM DTT, 25 C, RNA 0.2-0.4 nM; EMSA: same with 100 mM KCl, 10% glycerol, 1 nM RNA, on ice, UV crosslinked; conditions: protein: recombinant; chain copies: 2; label: biotin
[9] = molecular target: T3, His6-p37AUF1(78-239); test: as above; conditions: protein: recombinant; label: biotin
[10] = molecular target: T2, His6-p37AUF1 wt; test: fluorescence anisotropy; first site (Kd1), 50 mM KCl; Anisotropy: 10 mM Tris-HCl pH 8.0, 100 mM KCl (50 mM for Fl-ARE2), 0.5 mM EDTA, 0.1 ug/ul acetylated BSA, 1 ug/ul heparin, 2 mM DTT, 25 C, RNA 0.2-0.4 nM; EMSA: same with 100 mM KCl, 10% glycerol, 1 nM RNA, on ice, UV crosslinked; conditions: protein: recombinant; chain copies: 2; label: 5' fluorescein
[11] = molecular target: T3, His6-p37AUF1(78-239); test: as above; conditions: protein: recombinant; label: 5' fluorescein
[12] = molecular target: T4, His6-p37AUF1(1-239); test: as above; conditions: protein: recombinant; chain copies: 2; label: 5' fluorescein
[13] = molecular target: His6-p37AUF1 W250F (human, UniProt Q14103-4 1-287, W250F); test: fluorescence anisotropy; Anisotropy: 10 mM Tris-HCl pH 8.0, 100 mM KCl (50 mM for Fl-ARE2), 0.5 mM EDTA, 0.1 ug/ul acetylated BSA, 1 ug/ul heparin, 2 mM DTT, 25 C, RNA 0.2-0.4 nM; EMSA: same with 100 mM KCl, 10% glycerol, 1 nM RNA, on ice, UV crosslinked; conditions: protein: recombinant; tags: N-term His6; chain copies: 2; label: 3' fluorescein
[14] = molecular target: His6-p37AUF1(Δ69-77) (human, UniProt Q14103-4 1-287, del69-77); test: as above; conditions: protein: recombinant; chain copies: 2; label: 3' fluorescein
[15] = molecular target: p37AUF1 (EK-cleaved) (human, UniProt Q14103-4 1-287); test: as above; conditions: protein: recombinant; tags: His6 removed by enterokinase; chain copies: 2; label: 3' fluorescein
[16] = molecular target: His6-p37AUF1(30-287) (human, UniProt Q14103-4 30-287); test: as above; conditions: protein: recombinant; chain copies: 2; label: 3' fluorescein
[17] = molecular target: T1, His6-p37AUF1 W87F; test: Trp fluorescence and iodide quenching; 2 uM each; KSV 0.60 vs 6.59 M-1 without RNA; saturates near 1:1; Anisotropy: 10 mM Tris-HCl pH 8.0, 100 mM KCl (50 mM for Fl-ARE2), 0.5 mM EDTA, 0.1 ug/ul acetylated BSA, 1 ug/ul heparin, 2 mM DTT, 25 C, RNA 0.2-0.4 nM; EMSA: same with 100 mM KCl, 10% glycerol, 1 nM RNA, on ice, UV crosslinked; conditions: protein: recombinant; tags: N-term His6; chain copies: 2

T3 sequence (Q14103 other isoform, or with tags, fused parts or gaps): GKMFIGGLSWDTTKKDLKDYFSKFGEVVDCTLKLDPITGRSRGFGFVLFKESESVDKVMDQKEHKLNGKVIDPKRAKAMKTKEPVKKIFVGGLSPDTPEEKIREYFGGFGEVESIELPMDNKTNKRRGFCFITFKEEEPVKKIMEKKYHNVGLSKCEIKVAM
T2 sequence (Q14103 other isoform, or with tags, fused parts or gaps): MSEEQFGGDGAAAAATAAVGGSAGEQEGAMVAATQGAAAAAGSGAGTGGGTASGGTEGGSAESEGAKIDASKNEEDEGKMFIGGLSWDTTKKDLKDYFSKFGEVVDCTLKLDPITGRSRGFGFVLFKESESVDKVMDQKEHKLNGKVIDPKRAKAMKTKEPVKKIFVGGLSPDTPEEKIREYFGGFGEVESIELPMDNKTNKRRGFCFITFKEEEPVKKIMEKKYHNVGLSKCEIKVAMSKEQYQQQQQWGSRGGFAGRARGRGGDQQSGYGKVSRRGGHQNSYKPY
T4 sequence (Q14103 other isoform, or with tags, fused parts or gaps): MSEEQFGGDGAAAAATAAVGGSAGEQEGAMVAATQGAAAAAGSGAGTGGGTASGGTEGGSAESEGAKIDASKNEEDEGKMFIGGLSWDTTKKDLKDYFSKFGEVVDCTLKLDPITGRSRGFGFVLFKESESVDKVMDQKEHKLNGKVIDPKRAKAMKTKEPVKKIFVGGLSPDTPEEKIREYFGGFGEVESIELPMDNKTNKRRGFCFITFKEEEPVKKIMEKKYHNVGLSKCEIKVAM
His6-p37AUF1(69-239), sequence (Q14103 other isoform, or with tags, fused parts or gaps): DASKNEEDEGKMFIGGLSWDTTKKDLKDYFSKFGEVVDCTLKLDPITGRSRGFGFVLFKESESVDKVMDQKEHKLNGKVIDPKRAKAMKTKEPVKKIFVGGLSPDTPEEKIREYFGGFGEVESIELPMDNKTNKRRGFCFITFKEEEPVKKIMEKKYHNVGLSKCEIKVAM
T1 sequence (Q14103 other isoform, or with tags, fused parts or gaps W87F | W87F W87F): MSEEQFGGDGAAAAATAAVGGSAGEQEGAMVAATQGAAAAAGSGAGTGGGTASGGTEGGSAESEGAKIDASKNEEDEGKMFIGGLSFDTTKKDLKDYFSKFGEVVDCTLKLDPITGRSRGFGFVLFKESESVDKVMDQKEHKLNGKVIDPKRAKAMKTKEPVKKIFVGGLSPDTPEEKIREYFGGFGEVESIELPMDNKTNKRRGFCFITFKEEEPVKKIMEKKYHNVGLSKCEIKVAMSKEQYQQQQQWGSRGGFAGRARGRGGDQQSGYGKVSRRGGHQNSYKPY
His6-p37AUF1(69-287), sequence (Q14103 other isoform, or with tags, fused parts or gaps): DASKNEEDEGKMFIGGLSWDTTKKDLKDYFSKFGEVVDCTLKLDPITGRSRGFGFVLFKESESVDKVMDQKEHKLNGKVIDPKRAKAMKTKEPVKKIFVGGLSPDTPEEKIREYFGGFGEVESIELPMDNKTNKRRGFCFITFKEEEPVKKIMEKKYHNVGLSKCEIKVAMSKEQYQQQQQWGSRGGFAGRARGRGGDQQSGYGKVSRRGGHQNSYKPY
His6-p37AUF1 W250F, sequence (Q14103 other isoform, or with tags, fused parts or gaps W250F | W250F W250F): as the sequence (Q14103 other isoform, or with tags, fused parts or gaps W87F | W87F W87F) above, with F87W, W250F counted along it
His6-p37AUF1(Δ69-77), sequence (Q14103 other isoform, or with tags, fused parts or gaps del69-77 | mutant): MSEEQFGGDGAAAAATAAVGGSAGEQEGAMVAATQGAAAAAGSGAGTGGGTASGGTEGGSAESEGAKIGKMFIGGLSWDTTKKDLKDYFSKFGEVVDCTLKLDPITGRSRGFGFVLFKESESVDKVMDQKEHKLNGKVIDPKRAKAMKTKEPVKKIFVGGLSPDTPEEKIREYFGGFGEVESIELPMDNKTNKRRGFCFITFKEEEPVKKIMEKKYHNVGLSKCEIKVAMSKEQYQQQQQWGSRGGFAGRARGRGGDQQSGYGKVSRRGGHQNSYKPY
His6-p37AUF1(30-287), sequence (Q14103 other isoform, or with tags, fused parts or gaps): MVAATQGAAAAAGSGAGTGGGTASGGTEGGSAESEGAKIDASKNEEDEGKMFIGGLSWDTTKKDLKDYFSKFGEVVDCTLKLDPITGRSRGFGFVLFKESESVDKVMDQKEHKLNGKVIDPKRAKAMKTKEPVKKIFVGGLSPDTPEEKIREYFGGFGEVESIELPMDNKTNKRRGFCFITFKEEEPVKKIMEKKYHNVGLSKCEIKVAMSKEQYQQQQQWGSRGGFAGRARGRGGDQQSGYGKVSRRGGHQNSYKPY
p37AUF1 (EK-cleaved), sequence (Q14103 other isoform, or with tags, fused parts or gaps): as the sequence (Q14103 other isoform, or with tags, fused parts or gaps W87F | W87F W87F) above, with F87W counted along it
His6-p37AUF1(78-287), sequence (Q14103 other isoform, or with tags, fused parts or gaps): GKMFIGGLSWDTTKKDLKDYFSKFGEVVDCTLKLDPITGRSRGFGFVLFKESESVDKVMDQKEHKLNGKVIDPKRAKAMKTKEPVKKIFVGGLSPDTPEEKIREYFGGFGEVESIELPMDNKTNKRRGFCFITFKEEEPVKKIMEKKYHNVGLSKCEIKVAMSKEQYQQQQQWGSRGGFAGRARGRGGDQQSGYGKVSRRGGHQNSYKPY

B1: ARE15-G (unlabeled) (ssRNA)
RNA: UUAUUUAUUUAUUUAG
binding result [1]: binds

B2: ARE15-G-Fl (ssRNA)
RNA: UUAUUUAUUUAUUUAG
Kd [2]: 1090 ± 69 nM | Kd [3]: 467 ± 33 nM | Kd [4]: 110 ± 5 nM | Kd [5]: 796 ± 103 nM | Kd [6]: 176 ± 9 nM | Kd [7]: 933 ± 90 nM

B3: Fl-Rβ (ssRNA)
RNA: UGGCCAAUGCCCUGGCUCACAAAUACCACUG
binding result ([4]; label: 5' fluorescein): no binding | binding result ([5]; label: 5' fluorescein): no binding

B4: B-Rβ (ssRNA)
RNA: B3 RNA
binding result [8]: no binding | binding result [9]: no binding

B5: Fl-ARE2 (ssRNA)
RNA: GUGAUUAUUUAUUAUUUAUUUAUUAUUUAUUUAUUUAG
Kd [10]: 16 ± 3 nM | Kd [11]: 853 ± 48 nM | Kd [12]: 156 ± 7 nM

B6: ARE1-Fl (ssRNA)
RNA: CCCCUGGCUCACAAAUACCUUAUUUAUUUAUUUAG
Kd [13]: 22 ± 2 nM | Kd [4]: 19 ± 3 nM | Kd [5]: 505 ± 34 nM | Kd [6]: 101 ± 8 nM | Kd [7]: 527 ± 54 nM | Kd [14]: 89 ± 11 nM | Kd [15]: 15 ± 2 nM | Kd [16]: 27 ± 1.4 nM

B7: ARE1 (unlabeled) (ssRNA)
RNA: B6 RNA
binding result [17]: binds
